Laboratory results: article PMC6420783

Experiments:
[1] = target: Ape1WT (Homo sapiens, UniProt P27695 1-318); test: SPR
[2] = target: NPM1 (UniProt P06748 1-294); test: SPR
Chain of NPM1 (P06748 whole entry): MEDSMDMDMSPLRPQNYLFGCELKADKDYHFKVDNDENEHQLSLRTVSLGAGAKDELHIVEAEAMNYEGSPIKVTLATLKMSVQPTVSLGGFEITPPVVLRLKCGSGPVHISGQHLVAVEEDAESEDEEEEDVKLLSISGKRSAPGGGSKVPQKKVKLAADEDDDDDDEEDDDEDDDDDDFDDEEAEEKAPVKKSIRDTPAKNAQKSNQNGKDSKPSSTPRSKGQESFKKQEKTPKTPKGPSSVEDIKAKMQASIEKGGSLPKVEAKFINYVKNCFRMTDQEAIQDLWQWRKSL

Chain of Ape1WT (P27695 whole entry): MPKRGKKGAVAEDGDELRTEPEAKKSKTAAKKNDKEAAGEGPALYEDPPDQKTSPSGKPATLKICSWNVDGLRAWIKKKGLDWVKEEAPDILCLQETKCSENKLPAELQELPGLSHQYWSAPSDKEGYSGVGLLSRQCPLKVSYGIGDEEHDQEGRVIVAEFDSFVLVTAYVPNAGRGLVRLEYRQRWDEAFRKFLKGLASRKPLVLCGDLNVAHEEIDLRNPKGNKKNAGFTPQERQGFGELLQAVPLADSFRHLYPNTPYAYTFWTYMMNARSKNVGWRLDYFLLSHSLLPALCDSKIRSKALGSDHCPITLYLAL

Binder: TAGGGTTAGGGTTAGGGTTAGGG (structured_DNA) [Biot-Nat]
- Kd [1]: 31.6 nM
- Kd [2]: 147 nM

Binder: TTTTTTTTTTTTTTTTTTTTTTT (ssDNA) [Biot-Poly dT]
- Kd [1]: 170 nM
- Kd [2]: 255 nM
